Measurements from PMC9676460, “Dynamic acylome reveals metabolite driven modifications in Syntrophomonas wolfei” (Frontiers in Microbiology, 2022).
Where “and” joins values, the source holds several entries; their conditions need not be identical. Equal values may be shown once.

Target: the molecule itself
Experiment: crystal structure; Act2 alone; hanging drop, 0.1 M sodium formate pH 7.0, 12% PEG 3,350, room temperature; space group P 41 21 2; two molecules in the asymmetric unit; tetramer from crystal packing

B1: Syntrophomonas wolfei Göttingen Act2 (Swol_0675), acetyl-CoA acetyltransferase (enzyme)
chain: MAEINEVVVVGMARTPIGRYLGGLASVRANDLAIIAANAAIERAGVDPGIIDEIVGATCLHAGNGSLPPRIIGMKVGLPVRSGSCMVSQNCASGMRATEIACQNIMLGKTDISLVTAVESMSNIPYLLQQARSGYRMGDGKVQDAMLSDGLVCQLAGGHMGMTAENIAEKYGITREECDALALTSHQNAVKAVDEGIFDREIVPVVIKSKKGDKVISKDEHPIRGASLETMAKLPPAFKKGGVVTAANASGINDCAAAAVFMSKKKCEELGLKPLMKLVGICSEGVDAKVMGLGPAVAMPKVLKQAGWKYEDVDYWEVNEAFAAQVLGVVRMLKEEAGIELDFSKTNHNGSGIGLGHPVGATGLRIIVSMYYELERLGLTKGGASLCVGGGSAMASLWTRDI
notes: Act2, acetyl-CoA acetyltransferase encoded by the gene Swol_0675 of Syntrophomonas wolfei subsp. wolfei strain Göttingen; synthesized gene cloned into pMAPLe4; The asymmetric unit holds a homodimer; also called acetyl-CoA transferase; acyl-CoA transferase paralog; source: E. coli BL21-Gold (DE3), purified (NiNTA, TEV cleavage, Superdex 200 SEC); not shown: His6, N-terminal, cleaved
stoichiometry N: 2 and 4
